Measurements published in patent publication US20250099379A1, “NEW SYSTEM FOR THE TOPICAL PHARMACOLOGICAL RELEASE OF AN ACTIVE INGREDIENT” (UNIVERSITÀ DEGLI STUDI DI PADOVA, priority 2022, published 2025).

B1: SB3: human SerpinB3 protease inhibitor protein, produced recombinantly; incorporated in wet silica sol-gel (8% SiO2) (protein, UniProt P29508 1-390, looked up)
Serpin B3: MNSLSEANTKFMFDLFQQFRKSKENNIFYSPISITSALGMVLLGAKDNTAQQIKKVLHFDQVTENTTGKAATYHVDRSGNVHHQFQKLLTEFNKSTDAYELKIANKLFGEKTYLFLQEYLDAIKKFYQTSVESVDFANAPEESRKKINSWVESQTNEKIKNLIPEGNIGSNTTLVLVNAIYFKGQWEKKFNKEDTKEEKFWPNKNTYKSIQMMRQYTSFHFASLEDVQAKVLEIPYKGKDLSMIVLLPNEIDGLQKLEEKLTAEKLMEWTSLQNMRETRVDLHLPRFKVEESYDLKDTLRTMGMVDIFNGDADLSGMTGSRGLVLSGVLHKAFVEVTEEGAEAAAATAVVGFGSSPTSTNEEFHCNHPFLFFIRQNKTNSILFYGRFSSP

What was measured:
[1] = Release of BSA-FITC from wet silica sol-gel suspended in 3% HPMC hydrogel or buffer (dialysis tubes); format: physicochemical; settings: BSA-FITC in silica hydrogel (SiO2 8%), equal volume of release buffer or 3% HPMC; PBST+0.1% BSA at 37° C.
Procedure: In a preliminary test it was evaluated if the use of hydrogel of 3% w/v HPMC as diluent for the suspension of silica nanoparticles influences the release of a protein incorporated therein. To this purpose, preparations constituted by silica hydrogel having incorporated the model protein BSA-FITC, suspended in an equal volume of release buffer or t 3% HPMC, were inserted in dialysis tubes (cut-off 100 KDa) and immersed in PBST+0.1% BSA at 37° C. At programmed time points the content of BSA-FITC was quantified in the acceptor solution by fluorescence spectroscopy.

[2] = Release of SB3 from wet silica sol-gel into buffer (ELISA quantification); format: physicochemical; settings: wet silica sol-gel (8% SiO2 w/w), crushed manually; gels loaded at SB3 5 and 50 μg/mL; immersion in buffer at 37
Procedure: 200 μl of the prepared product containing SB3 in silica hydrogel were suspended in 10 mL of phosphate buffer 100 mM, 0.05% Tween 20, 0.1% BSA, pH 6.0 and incubated at 37° C. under slight stirring. At defined time moments (0 h, 5 h and 24 h) the sample was centrifuged (1390 g) and a small portion of supernatant (250 μl) was removed by titration of SB3 and replaced with fresh buffer. The compound was then re-suspended in the supernatant by a slight vortex and the incubation at 37° C. was continued until the subsequent moment. The concentration of SB3 in the supernatants was quantified by sandwich ELISA (kit HEPA Lisa, Xeptagen S.p.A, Vega Park, Venice) by following the manufacturer's instructions. […] After washing, the concentration of SB3 was detected by incubation with 100 μL of anti-SB3 secondary Ab conjugated with streptavidin HRP (0.5 μg/mL). The plate was developed with a solution of substrate 3,3′,5,5′-tetramethylbenzidin (TMB) ready for use. The reaction was interrupted with 1 mol/L of HCl (100 μL) and the absorbance at 450 nm was measured on a reader of microplates (Victor×3; Perkin Elmer, Waltham, MA, USA). […]

MDCK cells = experiment: Scatter assay on MDCK cells; format: cell-based, canine; settings: solution of release from gel at SB3 50 μg/mL; similar to recombinant SB3 positive control (CTR+)
Procedure: The results were represented graphically by tracing the ratio between the amount of protein released in each time point (Mt) and the total protein (Mtot) incorporated in function of time. The released functional capability of SB3 was verified by scatter assay, as previously reported (Quarta et al. J Pathol 2010; 221:343-356). In detail, canine kidney cells Madin-Darby (MDCK) (5×10^3 cells/well), were treated with two different dilutions of SB3 released by the wet silica microspheres for 5 and 24 hours. The cells were fixed in 4% formaldehyde, coloured with blue solution of Coomassie and the scattering effect was analysed by using the Axiovert 200M microscope (Carl Zeiss Microscopy GmbH, Germania). As positive control, SB3 recombinant at 200 ng/ml was used.

| Molecule | Release profiles in presence or absence of HPMC hydrogel [1] | Mechanism of SB3 release (Mt/Mtot % vs square root of time, linear correlation) [2] | Scattering of cohesive cell colonies (MDCK cells) |
| --- | --- | --- | --- |
| BSA-FITC: model protein BSA-FITC incorporated in silica hydrogel | almost superimposable |  |  |
| B1 |  | takes place through a diffusion process | induced the 20 time-depending scattering of strictly cohesive colonies of MDK cells |
